PMC6389991

What was measured:
[1] = biological target: PfHsp70-x-C (27–679) (P. falciparum); test: BLI; Octet K2, 25 °C; His-tagged PfHsp70-x-C loaded on Ni-NTA biosensors, ATS as analyte (1.563-6.25 µM); steady-state analysis, 1:1 model
[2] = biological target: PfHsp70-x-C (27–679) (P. falciparum); test: pull-down; PfHsp70-x-C cross-linked to coupling resin, increasing PFA0660w-C (1.4286-28.5714 µM), with 1 mM ATP; band densities on SDS-PAGE, nonlinear regression
[3] = biological target: PfHsp70-x-C (27–679) (P. falciparum)
[4] = biological target: PfHsp70-x-S (30–412) (P. falciparum)
[5] = biological target: PfHsp70-x-C (27–679) (P. falciparum); test: pull-down; PfHsp70-x-C cross-linked to coupling resin, increasing PFA0660w-C (1.4286-28.5714 µM), without ATP; band densities on SDS-PAGE, nonlinear regression
[6] = biological target: PfHsp70-x-C (27–679) (P. falciparum); remark: listed apart in the source
[7] = biological target: PfHsp70-x-S (30–412) (P. falciparum); remark: listed apart in the source

Row | Substance | Kd [1] [µM] | Kd [2] [nM] | MDH aggregation suppression (absorbance at 360 nm, 48 °C): percent MDH aggregation with PFA0660w-C and PfHsp70-x-C together [3] [%] | MDH aggregation suppression (absorbance at 360 nm, 48 °C): percent MDH aggregation with PFA0660w-C and PfHsp70-x-S together [4] [%] | Kd [5] [µM] | beta galactosidase refolding: recovered enzyme activity with PFA0660w-C and PfHsp70-x-C together [6] [%] | beta galactosidase refolding: recovered enzyme activity with PFA0660w-C and PfHsp70-x-S together [7] [%]
1 | acidic terminal segment (ATS) domain of PfEMP1 (PF08_0141) (domain or fragment) | 180 |  |  |  |  |  | 
2 | PFA0660w-C (81–386) (domain or fragment) |  | 781 | 10.7 | 18.2 | 5.58 | 66.7 | 34.7
